According to patent US7344856:
Entries after “also recorded” stand apart in the source; their conditions may differ.

Assays:
[1] = molecular target: fusion protein PRR-6Q
[2] = molecular target: fusion protein PRR-6A
[3] = molecular target: fusion protein PRD
[4] = molecular target: fusion protein PRR-4K
[5] = molecular target: fusion protein PRR-8A
[6] = molecular target: fusion protein PRR-5A
[7] = molecular target: fusion protein PRR
[8] = molecular target: fusion protein PRR-3A
[9] = molecular target: fusion protein RRhANP
[10] = molecular target: fusion protein RChANP
[11] = molecular target: fusion protein PRhANP, P01160
fusion protein PRhANP, P01160, sequence (P01160 other isoform, or with tags, fused parts or gaps): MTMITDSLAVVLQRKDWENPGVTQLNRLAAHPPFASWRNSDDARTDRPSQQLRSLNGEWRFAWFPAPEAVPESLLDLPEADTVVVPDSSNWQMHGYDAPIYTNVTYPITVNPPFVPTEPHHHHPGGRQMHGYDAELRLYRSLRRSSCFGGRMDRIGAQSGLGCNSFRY

[12] = molecular target: fusion protein PRhCT, P01258
fusion protein PRhCT, P01258, sequence (P01258 other isoform, or with tags, fused parts or gaps): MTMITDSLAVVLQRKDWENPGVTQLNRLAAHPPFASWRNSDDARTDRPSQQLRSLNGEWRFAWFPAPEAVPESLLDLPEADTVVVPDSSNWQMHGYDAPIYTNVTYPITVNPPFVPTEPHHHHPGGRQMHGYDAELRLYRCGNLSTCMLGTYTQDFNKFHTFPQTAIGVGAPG

[13] = molecular target: fusion protein PRR-2A
[14] = molecular target: fusion protein PRR-1A
[15] = molecular target: fusion protein PKR
[16] = molecular target: fusion protein PKK
[17] = molecular target: fusion protein PRR-10A
[18] = molecular target: fusion protein PRS
[19] = molecular target: fusion protein PRR-6K
[20] = molecular target: fusion protein PRR-6R
[21] = molecular target: fusion protein PKD
[22] = molecular target: fusion protein PKE
[23] = molecular target: fusion protein expressed by pG117S4HompRHKR
[24] = molecular target: fusion protein PRR-4A
[25] = molecular target: fusion protein RShANPR
[26] = molecular target: fusion protein PKS
[27] = molecular target: fusion protein PRA
[28] = molecular target: fusion protein PRR-4D
[29] = molecular target: fusion protein RShANP
[30] = molecular target: T1, Dynorphine A, P01213
T1 chain: YGGFLRRIRPKLKWDNQ

[31] = molecular target: fusion protein PRR-4N
[32] = molecular target: fusion protein PRR-4Q
[33] = molecular target: fusion protein PKA
[34] = molecular target: fusion protein PRR-9A
[35] = molecular target: fusion protein PRE
[36] = molecular target: fusion protein PRR-4E
[37] = molecular target: fusion protein PRC
[38] = molecular target: fusion protein PRR-6N
[39] = molecular target: fusion protein RAhANP
[40] = molecular target: fusion protein PRR-6D

B1: E. coli OmpT protease (purified OmpT protease specimen) (protein)
chain: STETLSFTPDNINADISLGTLSGKTKERVYLAEEGGRKVSQLDWKFNNAAIIKGAINWDLMPQISIGAAGWTTLGSRGGNMVDQDWMDSSNPGTWTDESRHPDTQLNYANEFDLNIKGWLLNEPNYRLGLMAGYQESRYSFTARGGSYIYSSEEGFRDDIGSFPNGERAIGYKQRFKMPYIGLTGSYRYEDFELGGTFKYSGWVESSDNDEHYDPGKRITYRSKVKDQNYYSVAVNAGYYVTPNAKVYVEGAWNRVTNKKGNTSLYDHNNNTSDYSKNGAGIENYNFITTAGLKYTF
Relative amount of 4.9 kDa peptide (HPLC; OmpT 0.1 U/ml, 25 C, 60 min) (relative to PRR = 100) [1]: 390
cleavage by OmpT protease (SDS-PAGE; OmpT 0.1 U/ml) [1]: the cleavage by OmpT protease was observed in all of the fusion proteins
Relative amount of 4.9 kDa peptide (HPLC; 25 C, 60 min, pH 7.0) (relative to PRR = 100) [2]: 330
Relative amount of 4.9 kDa peptide (HPLC; OmpT 0.1 U/ml, 25 C, 60 min) (relative to PRR = 100) [2]: 310
cleavage by OmpT protease (SDS-PAGE) [2]: the cleavage by OmpT protease was confirmed in the fusion proteins other than PRR-1A
cleavage by OmpT protease (SDS-PAGE; OmpT 0.1 U/ml) [2]: the cleavage by OmpT protease was observed in all of the fusion proteins
cleavage by OmpT protease (SDS-PAGE) [3]: In PRD and PRE, no cleavage by OmpT protease was observed
Relative amount of 4.9 kDa peptide (HPLC; OmpT 2.0 U/ml, 25 C, 60 min) (relative to PRR = 100) [4]: 96
cleavage by OmpT protease (SDS-PAGE; OmpT 2.0 U/ml) [4]: the cleavage by OmpT protease was observed in all of the fusion proteins
Relative amount of 4.9 kDa peptide (HPLC; 25 C, 60 min, pH 7.0) (relative to PRR = 100) [5]: 200
cleavage by OmpT protease (SDS-PAGE) [5]: the cleavage by OmpT protease was confirmed in the fusion proteins other than PRR-1A
Relative amount of 4.9 kDa peptide (HPLC; 25 C, 60 min, pH 7.0) (relative to PRR = 100) [6]: 89
cleavage by OmpT protease (SDS-PAGE) [6]: the cleavage by OmpT protease was confirmed in the fusion proteins other than PRR-1A
Relative amount of 4.9 kDa peptide (HPLC; 25 C, 60 min, pH 7.0) (relative to PRR = 100) [7]: 100
Relative amount of 4.9 kDa peptide (HPLC; OmpT 0.1 U/ml, 25 C, 60 min) (relative to PRR = 100) [7]: 100
Relative amount of 4.9 kDa peptide (HPLC; OmpT 2.0 U/ml, 25 C, 60 min) (relative to PRR = 100) [7]: 100
cleavage by OmpT protease (SDS-PAGE) [7]: the cleavage by OmpT protease was confirmed in the fusion proteins other than PRR-1A
cleavage by OmpT protease (SDS-PAGE; OmpT 0.1 U/ml) [7]: the cleavage by OmpT protease was observed in all of the fusion proteins
cleavage by OmpT protease (SDS-PAGE; OmpT 2.0 U/ml) [7]: the cleavage by OmpT protease was observed in all of the fusion proteins
Relative amount of 4.9 kDa peptide (HPLC; 25 C, 60 min, pH 7.0) (relative to PRR = 100) [8]: 44
cleavage by OmpT protease (SDS-PAGE) [8]: the cleavage by OmpT protease was confirmed in the fusion proteins other than PRR-1A
cleavage at sites inside the α-hANP moiety [9]: arginine-arginine alone was slightly cleaved, among the four sites (arginine-arginine, arginine-methionine, arginine-isoleucine and arginine-tyrosine) existing in α-hANP molecule ... while the other bonds were scarcely cleaved
cleavage by OmpT protease (SDS-PAGE) [9]: cleavage by OmpT protease was observed in RRhANP, RAhANP and RChANP
cleavage at sites inside the α-hANP moiety [10]: arginine-arginine alone was slightly cleaved, among the four sites (arginine-arginine, arginine-methionine, arginine-isoleucine and arginine-tyrosine) existing in α-hANP molecule ... while the other bonds were scarcely cleaved
cleavage by OmpT protease (SDS-PAGE) [10]: cleavage by OmpT protease was observed in RRhANP, RAhANP and RChANP
cleavage by OmpT protease (SDS-PAGE) [11]: PRhANP was cleaved by OmpT protease
cleavage by OmpT protease (SDS-PAGE) [12]: PRhCT was not cleaved thereby
Relative amount of 4.9 kDa peptide (HPLC; 25 C, 60 min, pH 7.0) (relative to PRR = 100) [13]: 150
cleavage by OmpT protease (SDS-PAGE) [13]: the cleavage by OmpT protease was confirmed in the fusion proteins other than PRR-1A
cleavage by OmpT protease (SDS-PAGE) [14]: The PRR-1A was not cleaved by OmpT protease
cleavage by OmpT protease (SDS-PAGE) [15]: PKK and PKR employed as positive controls were cleaved by OmpT protease
cleavage by OmpT protease (SDS-PAGE) [16]: PKK and PKR employed as positive controls were cleaved by OmpT protease
Relative amount of 4.9 kDa peptide (HPLC; 25 C, 60 min, pH 7.0) (relative to PRR = 100) [17]: 160
cleavage by OmpT protease (SDS-PAGE) [17]: the cleavage by OmpT protease was confirmed in the fusion proteins other than PRR-1A
cleavage efficiency by OmpT protease [18]: Alanine and serine were employed because they showed relatively high cleavage efficiency in Example 3
Relative amount of 4.9 kDa peptide (HPLC; OmpT 0.1 U/ml, 25 C, 60 min) (relative to PRR = 100) [19]: 1400
cleavage by OmpT protease (SDS-PAGE; OmpT 0.1 U/ml) [19]: the cleavage by OmpT protease was observed in all of the fusion proteins
Relative amount of 4.9 kDa peptide (HPLC; OmpT 0.1 U/ml, 25 C, 60 min) (relative to PRR = 100) [20]: 1000
cleavage by OmpT protease (SDS-PAGE; OmpT 0.1 U/ml) [20]: the cleavage by OmpT protease was observed in all of the fusion proteins
cleavage by OmpT protease (SDS-PAGE) [21]: PKD and PKE were not cleaved by OmpT protease
cleavage by OmpT protease (SDS-PAGE) [22]: PKD and PKE were not cleaved by OmpT protease
cleavage by OmpT protease (preliminary experiments) [23]: this fusion protein is cleaved at two sites when treated with OmpT protease
Relative amount of 4.9 kDa peptide (HPLC; 25 C, 60 min, pH 7.0) (relative to PRR = 100) [24]: 24
Relative amount of 4.9 kDa peptide (HPLC; OmpT 2.0 U/ml, 25 C, 60 min) (relative to PRR = 100) [24]: 49
cleavage by OmpT protease (SDS-PAGE) [24]: the cleavage by OmpT protease was confirmed in the fusion proteins other than PRR-1A
cleavage by OmpT protease (SDS-PAGE; OmpT 2.0 U/ml) [24]: the cleavage by OmpT protease was observed in all of the fusion proteins
relative amount of the released α-hANP (HPLC peak at 4.7 minutes; OmpT 2.0 U/ml, 25 C, 90 min) [25]: 2.2 times as much as that of RShANP
cleavage by OmpT protease (SDS-PAGE) [26]: PKA and PKS forming no basic amino acid pair were cleaved by OmpT protease
cleavage efficiency by OmpT protease [27]: Alanine and serine were employed because they showed relatively high cleavage efficiency in Example 3; also recorded: Alanine and cysteine were selected because they provided relatively high cleavage efficiency in Example 3
Relative amount of 4.9 kDa peptide (HPLC; OmpT 2.0 U/ml, 25 C, 60 min) (relative to PRR = 100) [28]: 2.8
cleavage by OmpT protease (SDS-PAGE; OmpT 2.0 U/ml) [28]: the cleavage by OmpT protease was observed in all of the fusion proteins
cleavage by OmpT protease (SDS-PAGE) [29]: it was confirmed that RShANP could be cleaved by OmpT protease
OmpT protease activity (cleavage of Dynorphine A, HPLC) [30]: 40 U/ml
Relative amount of 4.9 kDa peptide (HPLC; OmpT 2.0 U/ml, 25 C, 60 min) (relative to PRR = 100) [31]: 48
cleavage by OmpT protease (SDS-PAGE; OmpT 2.0 U/ml) [31]: the cleavage by OmpT protease was observed in all of the fusion proteins
Relative amount of 4.9 kDa peptide (HPLC; OmpT 2.0 U/ml, 25 C, 60 min) (relative to PRR = 100) [32]: 23
cleavage by OmpT protease (SDS-PAGE; OmpT 2.0 U/ml) [32]: the cleavage by OmpT protease was observed in all of the fusion proteins
cleavage by OmpT protease (SDS-PAGE) [33]: PKA and PKS forming no basic amino acid pair were cleaved by OmpT protease
Relative amount of 4.9 kDa peptide (HPLC; 25 C, 60 min, pH 7.0) (relative to PRR = 100) [34]: 160
cleavage by OmpT protease (SDS-PAGE) [34]: the cleavage by OmpT protease was confirmed in the fusion proteins other than PRR-1A
cleavage by OmpT protease (SDS-PAGE) [35]: In PRD and PRE, no cleavage by OmpT protease was observed
Relative amount of 4.9 kDa peptide (HPLC; OmpT 2.0 U/ml, 25 C, 60 min) (relative to PRR = 100) [36]: 2
cleavage by OmpT protease (SDS-PAGE; OmpT 2.0 U/ml) [36]: the cleavage by OmpT protease was observed in all of the fusion proteins
cleavage efficiency by OmpT protease [37]: Alanine and cysteine were selected because they provided relatively high cleavage efficiency in Example 3
Relative amount of 4.9 kDa peptide (HPLC; OmpT 0.1 U/ml, 25 C, 60 min) (relative to PRR = 100) [38]: 430
cleavage by OmpT protease (SDS-PAGE; OmpT 0.1 U/ml) [38]: the cleavage by OmpT protease was observed in all of the fusion proteins
cleavage at sites inside the α-hANP moiety [39]: arginine-arginine alone was slightly cleaved, among the four sites (arginine-arginine, arginine-methionine, arginine-isoleucine and arginine-tyrosine) existing in α-hANP molecule ... while the other bonds were scarcely cleaved
cleavage by OmpT protease (SDS-PAGE) [39]: cleavage by OmpT protease was observed in RRhANP, RAhANP and RChANP
Relative amount of 4.9 kDa peptide (HPLC; OmpT 0.1 U/ml, 25 C, 60 min) (relative to PRR = 100) [40]: 110
cleavage by OmpT protease (SDS-PAGE; OmpT 0.1 U/ml) [40]: the cleavage by OmpT protease was observed in all of the fusion proteins
